# T1: Escherichia coli RecB (E. coli, UniProt P08394 1-1180)
# T1 sequence: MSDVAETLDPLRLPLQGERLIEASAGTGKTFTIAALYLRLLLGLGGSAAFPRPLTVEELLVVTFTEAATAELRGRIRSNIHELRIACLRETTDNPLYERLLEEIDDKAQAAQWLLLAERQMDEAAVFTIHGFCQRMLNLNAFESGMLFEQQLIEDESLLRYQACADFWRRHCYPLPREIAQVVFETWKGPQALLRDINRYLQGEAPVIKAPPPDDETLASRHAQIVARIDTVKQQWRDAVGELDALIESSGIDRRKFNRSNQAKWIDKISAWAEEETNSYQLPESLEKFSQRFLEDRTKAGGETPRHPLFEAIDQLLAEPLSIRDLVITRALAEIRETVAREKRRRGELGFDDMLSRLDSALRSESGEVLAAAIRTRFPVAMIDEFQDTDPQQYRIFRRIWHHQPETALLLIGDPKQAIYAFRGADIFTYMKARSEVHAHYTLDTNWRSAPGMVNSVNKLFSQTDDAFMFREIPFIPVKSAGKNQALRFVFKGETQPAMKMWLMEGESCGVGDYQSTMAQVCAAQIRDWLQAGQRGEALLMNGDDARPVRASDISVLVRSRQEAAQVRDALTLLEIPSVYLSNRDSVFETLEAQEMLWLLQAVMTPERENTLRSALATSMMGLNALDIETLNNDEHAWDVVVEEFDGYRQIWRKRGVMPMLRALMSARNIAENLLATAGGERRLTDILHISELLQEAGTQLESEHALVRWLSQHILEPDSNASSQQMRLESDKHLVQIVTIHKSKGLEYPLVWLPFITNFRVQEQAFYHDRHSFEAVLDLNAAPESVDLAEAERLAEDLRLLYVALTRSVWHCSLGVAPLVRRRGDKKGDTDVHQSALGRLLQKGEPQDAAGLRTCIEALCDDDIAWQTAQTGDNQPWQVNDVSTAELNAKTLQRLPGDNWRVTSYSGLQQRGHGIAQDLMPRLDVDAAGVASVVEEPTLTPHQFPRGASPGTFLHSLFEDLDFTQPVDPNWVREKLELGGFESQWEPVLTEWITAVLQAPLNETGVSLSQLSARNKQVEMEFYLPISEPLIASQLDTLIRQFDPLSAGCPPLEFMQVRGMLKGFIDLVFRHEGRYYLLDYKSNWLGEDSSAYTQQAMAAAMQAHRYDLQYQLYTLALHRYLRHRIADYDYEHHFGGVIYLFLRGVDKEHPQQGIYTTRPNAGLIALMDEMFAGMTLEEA
# Target: T1, Escherichia coli RecB
# Experiment: reconstitution of the complex from separately purified subunits
binder,measurement,value
Escherichia coli RecC (natural protein) MLRVYHSNRLDVLEALMEFIVERERLDDPFEPEMILVQSTGMAQWLQMTLSQKFGIAANIDFPLPASFIWDMFVRVLPEIPKESAFNKQSMSWKLMTLLPQLLEREDFTLLRHYLTDDSDKRKLFQLSSKAADLFDQYLVYRPDWLAQWETGHLVEGLGEAQAWQAPLWKALVEYTHQLGQPRWHRANLYQRFIETLESATTCPPGLPSRVFICGISALPPVYLQALQALGKHIEIHLLFTNPCRYYWGDIKDPAYLAKLLTRQRRHSFEDRELPLFRDSENAGQLFNSDGEQDVGNPLLASWGKLGRDYIYLLSDLESSQELDAFVDVTPDNLLHNIQSDILELENRAVAGVNIEEFSRSDNKRPLDPLDSSITFHVCHSPQREVEVLHDRLLAMLEEDPTLTPRDIIVMVADIDSYSPFIQAVFGSAPADRYLPYAISDRRARQSHPVLEAFISLLSLPDSRFVSEDVLALLDVPVLAARFDITEEGLRYLRQWVNESGIRWGIDDDNVRELELPATGQHTWRFGLTRMLLGYAMESAQGEWQSVLPYDESSGLIAELVGHLASLLMQLNIWRRGLAQERPLEEWLPVCRDMLNAFFLPDAETEAAMTLIEQQWQAIIAEGLGAQYGDAVPLSLLRDELAQRLDQERISQRFLAGPVNICTLMPMRSIPFKVVCLLGMNDGVYPRQLAPLGFDLMSQKPKRGDRSRRDDDRYLFLEALISAQQKLYISYIGRSIQDNSERFPSVLVQELIDYIGQSHYLPGDEALNCDESEARVKAHLTCLHTRMPFDPQNYQPGERQSYAREWLPAASQAGKAHSEFVQPLPFTLPETVPLETLQRFWAHPVRAFFQMRLQVNFRTEDSEIPDTEPFILEGLSRYQINQQLLNALVEQDDAERLFRRFRAAGDLPYGAFGEIFWETQCQEMQQLADRVIACRQPGQSMEIDLACNGVQITGWLPQVQPDGLLRWRPSLLSVAQGMQLWLEHLVYCASGGNGESRLFLRKDGEWRFPPLAAEQALHYLSQLIEGYREGMSAPLLVLPESGGAWLKTCYDAQNDAMLDDDSTLQKARTKFLQAYEGNMMVRGEGDDIWYQRLWRQLTPETMEAIVEQSQRFLLPLFRFNQS,binding result,binds
